Results as given in publication doi:10.1101/544353.
Several values for one entry are separate records, joined by “and”; a condition that tells them apart may be missing. Equal entries are not always repeated. Where two headings read alike, the source gives them in different places. Values belong to the substance of their own block, whether it stands above or below them.

Experiments:
[1] = molecular target: Photosystem I (PSI) of Chroococcidiopsis sp. PCC 6712 (Chroococcidiopsis sp. PCC 6712 (endogenous)); assay: transmission electron microscopy with single particle analysis
[2] = molecular target: Photosystem I (PSI) of Chroococcidiopsis sp. PCC 6712 (Chroococcidiopsis sp. PCC 6712 (endogenous)); assay: native gel or EMSA
[3] = molecular target: Photosystem I (PSI) of Chroococcidiopsis sp. PCC 7434 (Chroococcidiopsis sp. PCC 7434 (endogenous)); assay: native gel or EMSA
[4] = molecular target: Photosystem I (PSI) of Chroococcidiopsis sp. TS-821 (Chroococcidiopsis sp. TS-821 (endogenous)); assay: native gel or EMSA
[5] = molecular target: Photosystem I (PSI) of Chroococcidiopsis sp. TS-821 (Chroococcidiopsis sp. TS-821 (endogenous)); assay: native gel or EMSA; remark: listed apart in the source
[6] = molecular target: Photosystem I (PSI) of Chroococcidiopsis sp. TS-821 (Chroococcidiopsis sp. TS-821 (endogenous)); assay: sucrose density gradient ultracentrifugation
[7] = molecular target: Photosystem I (PSI) of Chroococcidiopsis thermalis PCC 7203 (Chroococcidiopsis thermalis PCC 7203 (endogenous)); assay: native gel or EMSA
[8] = molecular target: Photosystem I (PSI) of Fischerella muscicola PCC 7414 (Fischerella muscicola PCC 7414 (endogenous)); assay: transmission electron microscopy with single particle analysis
[9] = molecular target: Photosystem I (PSI) of Fischerella muscicola PCC 7414 (Fischerella muscicola PCC 7414 (endogenous)); assay: native gel or EMSA
[10] = molecular target: Photosystem I (PSI) of Fischerella muscicola PCC 7414 (Fischerella muscicola PCC 7414 (endogenous)); assay: native gel or EMSA; remark: listed apart in the source
[11] = molecular target: Photosystem I (PSI) of Gloeocapsa sp. PCC 7428 (Gloeocapsa sp. PCC 7428 (endogenous)); assay: native gel or EMSA
[12] = molecular target: Photosystem I (PSI) of Gloeocapsa sp. PCC 7428 (Gloeocapsa sp. PCC 7428 (endogenous)); assay: native gel or EMSA; remark: listed apart in the source
[13] = molecular target: Photosystem I (PSI) of Leptolyngbya sp. PCC 7124 (Leptolyngbya sp. PCC 7124 (endogenous)); assay: native gel or EMSA
[14] = molecular target: Photosystem I (PSI) of Microcystis sp. PCC 7806 (Microcystis sp. PCC 7806 (endogenous)); assay: native gel or EMSA
[15] = molecular target: Photosystem I (PSI) of Nodularia PCC 73104 (Nodularia PCC 73104 (endogenous)); assay: native gel or EMSA
[16] = molecular target: Photosystem I (PSI) of Nostoc sp. PCC 7120 (Nostoc sp. PCC 7120 (endogenous)); assay: native gel or EMSA
[17] = molecular target: Photosystem I (PSI) of Nostoc sp. PCC 9335 (Nostoc sp. PCC 9335 (endogenous)); assay: native gel or EMSA
[18] = molecular target: Photosystem I (PSI) of Planktothrix paucivesiculata PCC 8926 (Planktothrix paucivesiculata PCC 8926 (endogenous)); assay: native gel or EMSA
[19] = molecular target: Photosystem I (PSI) of Pseudanabaena sp. B SP48 (Pseudanabaena sp. B SP48 (endogenous)); assay: native gel or EMSA
[20] = molecular target: Photosystem I (PSI) of Synechocystis sp. PCC 6803, wild type (Synechocystis sp. PCC 6803 (endogenous)) (UniProt P37277); assay: native gel or EMSA
[21] = molecular target: Photosystem I (PSI) of Synechocystis sp. PCC 7509 (Synechocystis sp. PCC 7509 (endogenous)); assay: native gel or EMSA
[22] = molecular target: Photosystem I (PSI) of Thermosynechococcus elongatus BP-1 (Thermosynechococcus elongatus BP-1 (endogenous)); assay: native gel or EMSA

stoichiometry N [1]: 3
stoichiometry N [2]: 3
Substance: Photosystem I (PSI) of Chroococcidiopsis sp. PCC 6712 (complex)

stoichiometry N [3]: 2
Substance: Photosystem I (PSI) of Chroococcidiopsis sp. PCC 7434 (complex)

stoichiometry N [4]: 4 and 2
stoichiometry N [5]: 3
stoichiometry N [6]: 2
Substance: Photosystem I (PSI) of Chroococcidiopsis sp. TS-821 (complex)

stoichiometry N [7]: 2
Substance: Photosystem I (PSI) of Chroococcidiopsis thermalis PCC 7203 (complex)

stoichiometry N [8]: 4
stoichiometry N [9]: 4
stoichiometry N [10]: 3
Substance: Photosystem I (PSI) of Fischerella muscicola PCC 7414 (complex)

stoichiometry N [11]: 4 and 2
stoichiometry N [12]: 3
Substance: Photosystem I (PSI) of Gloeocapsa sp. PCC 7428 (complex)

stoichiometry N [13]: 2
Substance: Photosystem I (PSI) of Leptolyngbya sp. PCC 7124 (complex)

stoichiometry N [14]: 2 and 3
Substance: Photosystem I (PSI) of Microcystis sp. PCC 7806 (complex)

stoichiometry N [15]: 4
Substance: Photosystem I (PSI) of Nodularia PCC 73104 (complex)

stoichiometry N [16]: 4
Substance: Photosystem I (PSI) of Nostoc sp. PCC 7120 (complex)

stoichiometry N [17]: 3 and 2
Substance: Photosystem I (PSI) of Nostoc sp. PCC 9335 (complex)

stoichiometry N [18]: 3
Substance: Photosystem I (PSI) of Planktothrix paucivesiculata PCC 8926 (complex)

stoichiometry N [19]: 3
Substance: Photosystem I (PSI) of Pseudanabaena sp. B SP48 (complex)

stoichiometry N [20]: 3
Substance: Photosystem I (PSI) of Synechocystis sp. PCC 6803, wild type (from UniProt P37277 1-157) (complex)

stoichiometry N [21]: 4 and 2
Substance: Photosystem I (PSI) of Synechocystis sp. PCC 7509 (complex)

stoichiometry N [22]: 3
Substance: Photosystem I (PSI) of Thermosynechococcus elongatus BP-1 (complex)
